# Results from patent publication US20240390508A1 (Takeda / Millennium, published 2024).
# Molecular target: T1, human transferrin receptor (hTfR) (human, UniProt P02786 89-760, limits assumed)
# T1 construct: 0.5 uM hTfR solution immobilised on a Ni-NTA chip with EDC/NHS; source and construct are not described; also called human TfR
# Test: SPR, hTfR immobilised on NTA chip, single cycle kinetics; A = KD less than 100 nM
# Procedure: The various synthesized peptide-nucleic acid conjugates were tested for intermolecular interaction by surface plasmon resonance (SPR) of the peptide-nucleic acid conjugate with transferrin receptor (hTfR) using the method shown below. The specific test method is shown below.
# NTA sensor chip (Global Life Science Technologies Japan Co., Ltd.) was inserted into Biacore T200 (Global Life Science Technologies Japan Co., Ltd.), prime operation was performed three times with running buffer: 10 mM HEPES pH 8.0 (Nacalai Tesque Co., Ltd.), 150 mM NaCl (Nacalai Tesque Co., Ltd.), 0.05% Tween 20 (Nacalai Tesque Co., Ltd.), 0.1% BSA (SIGMA-ALDRICH), and 1.0% DMSO (FUJIFILM Wako Pure Chemical Corporation), and equilibrated at a flow rate of 30 μL/min. 350 mM EDTA solution was reacted for 60 seconds at a flow rate of 10 μL/min, 0.5 mM NiCl₂ solution (Kishida Chemical) was reacted for 60 seconds at a flow rate of 10 μL/min, and the NTA sensor chip was washed with 3 mM EDTA solution (Nacalai Tesque Co., Ltd.) for 60 seconds at a flow rate of 10 μL/min. After mixing 50 μL each of 60 mM EDC solution (Global Life Science Technologies Japan Co., Ltd.) and 650 mM NHS solution (Global Life Science Technologies Japan Co., Ltd.), the mixture was reacted for 420 seconds at a flow rate of 10 μL/min. 150 μL of a 0.5 μM hTfR solution was prepared by diluting with a running buffer and reacted for 300 seconds at a flow rate of 10 μL/min to immobilize hTfR on the NTA sensor chip. After immobilization, capping was performed by reacting with a 1.0 M ethanolamine aqueous solution (Global Life Science Technologies Japan Co., Ltd.) at a flow rate of 10 μL/min for 420 seconds. A peptide-nucleic acid conjugate solution adjusted to 10 mM in DMSO solution was diluted with running buffer to a final concentration of […] peptide-nucleic acid conjugate solution, and 100 nM, 50 nM, 25 nM, 10 nM, 5 nM peptide-nucleic acid conjugate solutions were prepared. Using the aforementioned samples, the kinetics of the peptide against hTfR was obtained by SPR measurement.
# The kinetics evaluation model was Single Cycle Kinetics, and curve fitting was performed using Biacore T200 Evaluation Software Version 3.0 (Global Life Science Technologies Japan Co., Ltd.).
# T1 sequence (P02786 89-760 limits assumed): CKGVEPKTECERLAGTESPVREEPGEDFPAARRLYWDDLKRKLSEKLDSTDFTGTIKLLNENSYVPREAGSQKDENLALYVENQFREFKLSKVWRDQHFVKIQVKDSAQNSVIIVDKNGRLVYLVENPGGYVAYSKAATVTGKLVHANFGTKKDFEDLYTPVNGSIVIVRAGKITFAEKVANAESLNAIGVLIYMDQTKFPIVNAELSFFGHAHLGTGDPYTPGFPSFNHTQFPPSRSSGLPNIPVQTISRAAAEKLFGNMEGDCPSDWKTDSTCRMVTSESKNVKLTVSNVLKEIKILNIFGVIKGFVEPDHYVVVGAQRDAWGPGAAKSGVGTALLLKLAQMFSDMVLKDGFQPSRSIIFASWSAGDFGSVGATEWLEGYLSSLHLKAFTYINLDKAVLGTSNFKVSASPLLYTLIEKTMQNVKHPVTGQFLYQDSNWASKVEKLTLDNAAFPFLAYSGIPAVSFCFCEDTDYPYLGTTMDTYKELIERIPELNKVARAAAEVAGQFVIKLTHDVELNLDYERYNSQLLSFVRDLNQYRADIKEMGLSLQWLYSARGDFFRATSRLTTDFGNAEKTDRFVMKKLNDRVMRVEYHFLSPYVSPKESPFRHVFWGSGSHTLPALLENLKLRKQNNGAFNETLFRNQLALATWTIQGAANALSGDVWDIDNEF
row,Kd,Binder
1,< 100 nM,"AVFVWNYYIIRRYYC (MeF at 3, MeY at 14 (N-methyl); thioether ring from N-terminal chloroacetyl-Ala to Cys 15; C-terminal Gly-KN3-NH2, azide joined to BCN on the oligonucleotide, also called A1/C47) [peptide-HDO conjugate of Example 47 (first nucleic acid strand A1, second nucleic acid strand C47)]"
2,< 100 nM,"AVFVWNYYIIRRYYC (MeF at 3, MeY at 14 (N-methyl); thioether ring from N-terminal chloroacetyl-Ala to Cys 15; C-terminal Gly-KN3-NH2, azide joined to BCN on the oligonucleotide, also called A1/C1) [Y6-HDO conjugate of Example 1 (compound A1 annealed with compound C1)]"
3,< 100 nM,"AVFVWNYYIIRRYYC (MeF at 3, MeY at 14 (N-methyl); thioether ring from N-terminal chloroacetyl-Ala to Cys 15; C-terminal Gly-KN3-NH2, azide joined to BCN on the oligonucleotide, also called A1/C32) [peptide-HDO conjugate of Example 32 (first nucleic acid strand A1, second nucleic acid strand C32)]"
4,< 100 nM,"AVFVWNYYIIRRYYC (MeF at 3, MeY at 14 (N-methyl); thioether ring from N-terminal chloroacetyl-Ala to Cys 15; C-terminal Gly-KN3-NH2, azide joined to BCN on the oligonucleotide, also called A1/C21) [peptide-HDO conjugate of Example 21 (first nucleic acid strand A1, second nucleic acid strand C21)]"
5,< 100 nM,"AVFVWNYYIIRRYYC (MeF at 3, MeY at 14 (N-methyl); thioether ring from N-terminal chloroacetyl-Ala to Cys 15; C-terminal Gly-KN3-NH2, azide joined to BCN on the oligonucleotide, also called A1/C30) [peptide-HDO conjugate of Example 30 (first nucleic acid strand A1, second nucleic acid strand C30)]"
6,< 100 nM,"AVFVWNYYIIRRYYC (MeF at 3, MeY at 14 (N-methyl); thioether ring from N-terminal chloroacetyl-Ala to Cys 15; C-terminal Gly-KN3-NH2, azide joined to BCN on the oligonucleotide, also called A2/C28) [peptide-HDO conjugate of Example 36 (first nucleic acid strand A2, second nucleic acid strand C28)]"
7,< 100 nM,"AVFVWNYYIIRRYYC (MeF at 3, MeY at 14 (N-methyl); thioether ring from N-terminal chloroacetyl-Ala to Cys 15; C-terminal Gly-KN3-NH2, azide joined to BCN on the oligonucleotide, also called A2/C15) [peptide-HDO conjugate of Example 15 (first nucleic acid strand A2, second nucleic acid strand C15)]"
8,< 100 nM,"AVFVWNYYIIRRYYC (MeF at 3, MeY at 14 (N-methyl); thioether ring from N-terminal chloroacetyl-Ala to Cys 15; C-terminal Gly-KN3-NH2, azide joined to BCN on the oligonucleotide, also called A1/C6) [peptide-HDO conjugate of Example 6 (first nucleic acid strand A1, second nucleic acid strand C6)]"
9,< 100 nM,"AVFVWNYYIIRRYYC (MeF at 3, MeY at 14 (N-methyl); thioether ring from N-terminal chloroacetyl-Ala to Cys 15; C-terminal Gly-KN3-NH2, azide joined to BCN on the oligonucleotide, also called A2/C18) [peptide-HDO conjugate of Example 23 (first nucleic acid strand A2, second nucleic acid strand C18)]"
10,< 100 nM,"AVFVWNYYIIRRYYC (MeF at 3, MeY at 14 (N-methyl); thioether ring from N-terminal chloroacetyl-Ala to Cys 15; C-terminal Gly-KN3-NH2, azide joined to BCN on the oligonucleotide, also called A2/C11) [peptide-HDO conjugate of Example 11 (first nucleic acid strand A2, second nucleic acid strand C11)]"

# More lines, now with the values behind:
row,Binder,Kd
1,"AVFVWNYYIIRRYYC (MeF at 3, MeY at 14 (N-methyl); thioether ring from N-terminal chloroacetyl-Ala to Cys 15; C-terminal Gly-PEG4c-KN3-NH2, azide joined to BCN on the oligonucleotide, also called A2/C49) [peptide-HDO conjugate of Example 52 (first nucleic acid strand A2, second nucleic acid strand C49)]",< 100 nM
2,"AVFVWNYYIIRRYYC (MeF at 3, MeY at 14 (N-methyl); thioether ring from N-terminal chloroacetyl-Ala to Cys 15; C-terminal Gly-KN3-NH2, azide joined to BCN on the oligonucleotide, also called A2/C16) [peptide-HDO conjugate of Example 16 (first nucleic acid strand A2, second nucleic acid strand C16)]",< 100 nM
3,"AVFVWNYYIIRRYYC (not fully specified; MeF at 3, MeY at 14 (N-methyl); thioether ring from N-terminal chloroacetyl-Ala to Cys 15; C-terminal Gly-KN3-NH2, azide joined to BCN on the oligonucleotide, also called A1/C9) [peptide-HDO conjugate of Example 9 (first nucleic acid strand A1, second nucleic acid strand C9)]",< 100 nM
4,"AVFVWNYYIIRRYYC (MeF at 3, MeY at 14 (N-methyl); thioether ring from N-terminal chloroacetyl-Ala to Cys 15; C-terminal Gly-KN3-NH2, azide joined to BCN on the oligonucleotide, also called A1/C44) [peptide-HDO conjugate of Example 44 (first nucleic acid strand A1, second nucleic acid strand C44)]",< 100 nM
5,"AVFVWNYYIIRRYYC (MeF at 3, MeY at 14 (N-methyl); thioether ring from N-terminal chloroacetyl-Ala to Cys 15; C-terminal Gly-KN3-NH2, azide joined to BCN on the oligonucleotide, also called A2/C20) [peptide-HDO conjugate of Example 25 (first nucleic acid strand A2, second nucleic acid strand C20)]",< 100 nM
6,"AVFVWNYYIIRRYYC (MeF at 3, MeY at 14 (N-methyl); thioether ring from N-terminal chloroacetyl-Ala to Cys 15; C-terminal Gly-KN3-NH2, azide joined to BCN on the oligonucleotide, also called A1/C42) [peptide-HDO conjugate of Example 42 (first nucleic acid strand A1, second nucleic acid strand C42)]",< 100 nM
7,"AVFVWNYYIIRRYYC (MeF at 3, MeY at 14 (N-methyl); thioether ring from N-terminal chloroacetyl-Ala to Cys 15; C-terminal Gly-KN3-NH2, azide joined to BCN on the oligonucleotide, also called A1/C27) [peptide-HDO conjugate of Example 27 (first nucleic acid strand A1, second nucleic acid strand C27)]",< 100 nM
8,"AVFVWNYYIIRRYYC (MeF at 3, MeY at 14 (N-methyl); thioether ring from N-terminal chloroacetyl-Ala to Cys 15; C-terminal Gly-KN3-NH2, azide joined to BCN on the oligonucleotide, also called A1/C7) [peptide-HDO conjugate of Example 7 (first nucleic acid strand A1, second nucleic acid strand C7)]",< 100 nM
9,"AVFVWNYYIIRRYYC (MeF at 3, MeY at 14 (N-methyl); thioether ring from N-terminal chloroacetyl-Ala to Cys 15; C-terminal Gly-KN3-NH2, azide joined to BCN on the oligonucleotide, also called A2/C32) [peptide-HDO conjugate of Example 40 (first nucleic acid strand A2, second nucleic acid strand C32)]",< 100 nM
10,"Y11-PMO conjugate of Example 58 (not fully specified; N-terminal BCN; C-terminal amide; tBuS removed from Cys, Cys thiol joined to 3-maleimide propionyl A1; MeF at 3, MeY at 14 (N-methyl); thioether ring from N-terminal chloroacetyl-Ala to Cys 15; C-terminal Gly-KN3-NH2, azide joined to BCN of the linker peptide) peptide: AVFVWNYYIIRRYYC GGGEEESSC",< 100 nM
11,"AVFVWNYYIIRRYYC (MeF at 3, MeY at 14 (N-methyl); thioether ring from N-terminal chloroacetyl-Ala to Cys 15; C-terminal Gly-KN3-NH2, azide joined to BCN on the oligonucleotide, also called A1/C18) [peptide-HDO conjugate of Example 18 (first nucleic acid strand A1, second nucleic acid strand C18)]",< 100 nM
12,"AVFVWNYYIIRRYYC (MeF at 3, MeY at 14 (N-methyl); thioether ring from N-terminal chloroacetyl-Ala to Cys 15; C-terminal Gly-KN3-NH2, azide joined to BCN on the oligonucleotide, also called A2/C27) [peptide-HDO conjugate of Example 35 (first nucleic acid strand A2, second nucleic acid strand C27)]",< 100 nM
13,"AVFVWNYYIIRRYYC (MeF at 3, MeY at 14 (N-methyl); thioether ring from N-terminal chloroacetyl-Ala to Cys 15; C-terminal Gly-PEG12c-KN3-NH2, azide joined to BCN on the oligonucleotide, also called A2/C50) [peptide-HDO conjugate of Example 53 (first nucleic acid strand A2, second nucleic acid strand C50)]",< 100 nM
14,"AVFVWNYYIIRRYYC (MeF at 3, MeY at 14 (N-methyl); thioether ring from N-terminal chloroacetyl-Ala to Cys 15; C-terminal Gly-PEG4c-KN3-NH2, azide joined to BCN on the oligonucleotide, also called A1/C49) [peptide-HDO conjugate of Example 49 (first nucleic acid strand A1, second nucleic acid strand C49)]",< 100 nM
15,"AVFVWNYYIIRRYYC (MeF at 3, MeY at 14 (N-methyl); thioether ring from N-terminal chloroacetyl-Ala to Cys 15; C-terminal Gly-KN3-NH2, azide joined to BCN on the oligonucleotide, also called A2/C26) [peptide-HDO conjugate of Example 34 (first nucleic acid strand A2, second nucleic acid strand C26)]",< 100 nM
16,"AVFVWNYYIIRRYYC (MeF at 3, MeY at 14 (N-methyl); thioether ring from N-terminal chloroacetyl-Ala to Cys 15; C-terminal Gly-KN3-NH2, azide joined to BCN on the oligonucleotide, also called A1/C2) [peptide-HDO conjugate of Example 2 (first nucleic acid strand A1, second nucleic acid strand C2)]",< 100 nM
